Patent EP1188828A1

Columns and labels:
[1] = target: rat Reg-binding protein (rat Reg receptor, rat homologue of EXTL3/EXTR1) with N-terminal HA tag (rat); test: displacement of ^125I-labeled rat Reg protein (competitor tracer) from CHO cells stably expressing rat Reg receptor
[2] = target: rat Reg-binding protein (rat Reg receptor, rat homologue of EXTL3/EXTR1) with N-terminal HA tag (rat); test: cell-based or functional assay
[3] = target: rat Reg-binding protein (rat Reg receptor, rat homologue of EXTL3/EXTR1) with N-terminal HA tag (rat); test: radioligand binding on CHO cells stably expressing HA-tagged rat Reg receptor
[4] = target: rat Reg-binding protein (rat Reg receptor, rat homologue of EXTL3/EXTR1) with N-terminal HA tag (rat); test: displacement of ^125I-labeled rat Reg protein from CHO cells stably expressing rat Reg receptor

| Ki [1] | BrdU incorporation of CHO cell line #3 stably expressing the Reg receptor [2] | BrdU incorporation of CHO cell line #22 stably expressing the Reg receptor [2] | Kd [3] | Ki [4] | Binder |
| --- | --- | --- | --- | --- | --- |
| 7.41 nM | – | – | – | – | human REG protein (REG Iα) (ligand, UniProt P05451 23-166, looked up) QEAQTELPQARISCPEGTNAYRSYCYYFNEDRETWVDADLYCQNMNSGNLVSVLTQAEGAFVASLIKESGTDDFNVWIGLHDPKKNRRWHWSSGSLVSYKSWGIGAPSSVNPGYCVSLTSSTGFQKWKDVPCEDKFSFVCKFKN |
| – | 4.01 nM | 1.11 nM | 4.41 nM | 1.61 nM | rat Reg protein (Reg I) (ligand, UniProt P10758 22-165, looked up, [^125I] label by Bolton-Hunter reagent where used as the labelled tracer; unlabeled where used as competitor) QEAEEDLPSARITCPEGSNAYSSYCYYFMEDHLSWAEADLFCQNMNSGYLVSVLSQAEGNFLASLIKESGTTAANVWIGLHDPKNNRRWHWSSGSLFLYKSWDTGYPNNSNRGYCVSVTSNSGYKKWRDNSCDAQLSFVCKFKA |
